Kd data for one molecule are collected here from publication PMC10078426 (2022).

In this assay the target is human IgG from serum (human, UniProt P01857 = IgG part). Put plainly: SPR. (In SPR one partner is held on a chip, and binding of the other changes the refractive index at the surface.)

B1: protein G only (natural protein)
chain: VDSPIEDTPIIRNGGELTNLLGNSETTLALRNEESATADLTAAAVADTVAAAAAENAGAAAWEAAAAADALAKAKADALKEFNKYGVSDYYKNLINNAKTVEGVKDLQAQVVESAKKARISEATDGLSDFLKSQTPAEDTVKSIELAEAKVLANRELDKYGVSDYHKNLINNAKTVEGVKDLQAQVVESAKKARISEATDGLSDFLKSQTPAEDTVKSIELAEAKVLANRELDKYGVSDYYKNLINNAKTVEGVKALIDEILAALPKTDTYKLILNGKTLKGETTTEAVDAATAEKVFKQYANDNGVDGEWTYDDATKTFTVTEKPEVIDASELTPAVTTYKLVINGKTLKGETTTEAVDAATAEKVFKQYANDNGVDGEWTYDDATKTFTVTEKPEVIDASELTPAVTTYKLVINGKTLKGETTTKAVDAETAEKAFKQYANDNGVDGVWTYDDATKTFTVTEMVTEVPGDAPTEPEKPEASIPLVPLTPATPIAKDDAKKDDTKKEDAKKPEAKKEDAKKAETLPTT
For orientation: Kd means the free concentration of one partner at which half of the binding sites on the other are occupied at equilibrium, for simple one-to-one binding. Low values mean tighter binding, high ones weaker binding. Regarding B1, the Kd was determined as 35.6 nM.
